Paper PMC5030135 (Nature chemical biology, 2016)

Target: GDI.Cdc42 FLARE biosensor, wild type (Cdc42 with an N-terminal FRET binding antenna) (UniProt P60953 1-191)
Assay: FRET or BRET

Chain of GDI.Cdc42 FLARE biosensor, wild type (Cdc42 with an N-terminal FRET binding antenna) (P60953 whole entry): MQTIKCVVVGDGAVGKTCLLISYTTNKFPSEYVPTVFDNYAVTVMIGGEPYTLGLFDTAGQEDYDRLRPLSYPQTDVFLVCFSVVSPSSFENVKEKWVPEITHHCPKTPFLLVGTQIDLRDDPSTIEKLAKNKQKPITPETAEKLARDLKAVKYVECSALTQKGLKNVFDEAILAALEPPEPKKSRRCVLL

increase in FRET/CFP emission ratio: 218%
B1: RhoGDI1 (RhoGDIα), wild type, unlabeled, co-expressed in excess (natural protein)
chain: MAEQEPTAEQLAQIAAENEEDEHSVNYKPPAQKSIQEIQELDKDDESLRKYKEALLGRVAVSADPNVPNVVVTGLTLVCSSAPGPLELDLTGDLESFKKQSFVLKEGVEYRIKISFRVNREIVSGMKYIQHTYRKGVKIDKTDYMVGSYGPRAEEYEFLTPVEEAPKGMLARGSYSIKSRFTDDDKTDHLSWEWNLTIKKDWKD
